Laboratory results from paper PMC3790826.

Assays:
[1] = target: rice RAD51A1 (japonica cultivar Nipponbare), His6 tag removed (Oryza sativa (japonica cultivar Nipponbare)); test: SEC; Superdex 200 GL 10/300; 70 µg protein incubated 30 min at room temperature without nucleotide (the printed oligomer sizes), with 1 mM ATP (apparent sizes drastically increased) or with 1 mM ADP (no such change); elution in 20 mM HEPES-NaOH pH 7.5, 400 mM NaCl, 0.1 mM EDTA, 2 mM 2-mercaptoethanol, 1 mM MgCl2; apparent molecular sizes
[2] = target: rice RAD51A2 (japonica cultivar Nipponbare), His6 tag removed (Oryza sativa (japonica cultivar Nipponbare)); test: as above

Row | Substance | stoichiometry N [1] | stoichiometry N [2]
1 | rice RAD51A1 (japonica cultivar Nipponbare), His6 tag removed (natural protein) | 8 -mer | 
2 | rice RAD51A2 (japonica cultivar Nipponbare), His6 tag removed (natural protein) |  | 5 -mer
